Measurements: patent publication US20230114801A1 (SYSTIMMUNE, published 2023)

Tests used:
Test in all cases: BLI (Octet), binder on AHC sensor, 100 nM human antigen, 1:1 fit
[1] = target: T1, human EGFR (human, UniProt P00533 25-645, limits assumed)
T1 construct: Soluble antigen in Octet; construct not described

[2] = target: T2, human HER3 (human, UniProt P21860 20-643)
T2 construct: Soluble antigen in Octet; bought; also called human HER3 (Acro ER3-H5223)

[3] = target: T3, human CD3 (human, UniProt P07766 23-126; P04234 22-105)
T3 construct: also called His-tagged human CD3; human CD3 (Acro CDD-H52W1)

Binder	Kd [1] [nM]	Kd [2] [nM]	Kd [3] [nM]
SI-75X3 (other, tri-miniGNC; D1 αEGFR, D2 αHER3, D3 αCD3 (Fab); also called tri-miniGNC (SI-75X3)) chain 1: EIVLTQSPSTLSVSPGERATFSCRASQSIGTNIHWYQQKPGKPPRLLIKYASESISGIPDRFSGSGSGTEFTLTISSVQSEDFAVYYCQQNNNWPTTFGPGTKLTVLGGGGSGGGGSGGGGSGGGGSQVQLQQSGPGLVKPSETLSITCTVSGFSLTNYGVHWIRQAPGKGLEWLGVIWSGGNTDYNTPFTSRFTITKDNSKNQVYFKLRSVRADDTAIYYCARALTYYDYEFAYWGQGTLVTVSSGGGGSGGGGSEVQLVESGGGLVQPGGSLRLSCAASGFTISTNAMSWVRQAPGKGLEWIGVITGRDITYYASWAKGRFTISRDNSKNTLYLQMNSLRAEDTAVYYCARDGGSSAITSNNIWGQGTLVTVSSASTKGPSVFPLAPSSKSTSGGTAALGCLVKDYFPEPVTVSWNSGALTSGVHTFPAVLQSSGLYSLSSVVTVPSSSLGTQTYICNVNHKPSNTKVDKRVEPKSCDKTHTCPPCPAPEAAGGPSVFLFPPKPKDTLMISRTPEVTCVVVDVSHEDPEVKFNWYVDGVEVHNAKTKPREEQYNSTYRVVSVLTVLHQDWLNGKEYKCAVSNKALPAPIEKTISKAKGQPREPQVYTLPPSRDELTKNQVSLSCAVKGFYPSDIAVEWESNGQPENNYKTTPPVLDSDGSFFLVSKLTVDKSRWQQGNVFSCSVMHEALHNHYTQKSLSLSPG chain 2: QSALTQPASVSGSPGQSITISCTGTSSDVGGYNFVSWYQQHPGKAPKLMIYDVSDRPSGVSDRFSGSKSGNTASLIISGLQADDEADYYCSSYGSSSTHVIFGGGTKVTVLGGGGSGGGGSGGGGSGGGGSQVQLQESGGGLVKPGGSLSLSCAASGFTFSSYWMSWVRQAPGKGLEWVANINRDGSASYYVDSVKGRFTISRDDAKNSLYLQMNSLRAEDTAVYYCARDRGVGYFDLWGRGTLVTVSSGGGGSGGGGSDVVMTQSPSTLSASVGDRVTINCQASESISSWLAWYQQKPGKAPKLLIYEASKLASGVPSRFSGSGSGTEFTLTISSLQPDDFATYYCQGYFYFISRTYVNSFGGGTKVEIKRTVAAPSVFIFPPSDEQLKSGTASVVCLLNNFYPREAKVQWKVDNALQSGNSQESVTEQDSKDSTYSLSSTLTLSKADYEKHKVYACEVTHQGLSSPVTKSFNRGECGGDKTHTCPPCPAPEAAGGPSVFLFPPKPKDTLMISRTPEVTCVVVDVSHEDPEVKFNWYVDGVEVHNAKTKPREEQYNSTYRVVSVLTVLHQDWLNGKEYKCAVSNKALPAPIEKTISKAKGQPREPQVYTLPPSRDELTKNQVSLWCLVKGFYPSDIAVEWESNGQPENNYKTTPPVLDSDGSFFLYSKLTVDKSRWQQGNVFSCSVMHEALHNRFTQKSLSLSPG	8.47	146	18.2
SI-75X1 (bispecific antibody, human IgG1, kappa, L234A L235A, bi-miniGNC; D1 αEGFR, D3 αCD3 (Fab)) chain 1: EIVLTQSPSTLSVSPGERATFSCRASQSIGTNIHWYQQKPGKPPRLLIKYASESISGIPDRFSGSGSGTEFTLTISSVQSEDFAVYYCQQNNNWPTTFGPGTKLTVLGGGGSGGGGSGGGGSGGGGSQVQLQQSGPGLVKPSETLSITCTVSGFSLTNYGVHWIRQAPGKGLEWLGVIWSGGNTDYNTPFTSRFTITKDNSKNQVYFKLRSVRADDTAIYYCARALTYYDYEFAYWGQGTLVTVSSGGGGSGGGGSEVQLVESGGGLVQPGGSLRLSCAASGFTISTNAMSWVRQAPGKGLEWIGVITGRDITYYASWAKGRFTISRDNSKNTLYLQMNSLRAEDTAVYYCARDGGSSAITSNNIWGQGTLVTVSSASTKGPSVFPLAPSSKSTSGGTAALGCLVKDYFPEPVTVSWNSGALTSGVHTFPAVLQSSGLYSLSSVVTVPSSSLGTQTYICNVNHKPSNTKVDKRVEPKSCDKTHTCPPCPAPEAAGGPSVFLFPPKPKDTLMISRTPEVTCVVVDVSHEDPEVKFNWYVDGVEVHNAKTKPREEQYNSTYRVVSVLTVLHQDWLNGKEYKCAVSNKALPAPIEKTISKAKGQPREPQVYTLPPSRDELTKNQVSLSCAVKGFYPSDIAVEWESNGQPENNYKTTPPVLDSDGSFFLVSKLTVDKSRWQQGNVFSCSVMHEALHNHYTQKSLSLSPG chain 2: DVVMTQSPSTLSASVGDRVTINCQASESISSWLAWYQQKPGKAPKLLIYEASKLASGVPSRFSGSGSGTEFTLTISSLQPDDFATYYCQGYFYFISRTYVNSFGGGTKVEIKRTVAAPSVFIFPPSDEQLKSGTASVVCLLNNFYPREAKVQWKVDNALQSGNSQESVTEQDSKDSTYSLSSTLTLSKADYEKHKVYACEVTHQGLSSPVTKSFNRGECGGDKTHTCPPCPAPEAAGGPSVFLFPPKPKDTLMISRTPEVTCVVVDVSHEDPEVKFNWYVDGVEVHNAKTKPREEQYNSTYRVVSVLTVLHQDWLNGKEYKCAVSNKALPAPIEKTISKAKGQPREPQVYTLPPSRDELTKNQVSLWCLVKGFYPSDIAVEWESNGQPENNYKTTPPVLDSDGSFFLYSKLTVDKSRWQQGNVFSCSVMHEALHNRFTQKSLSLSPG	8.11	–	24
SI-75X2 (bispecific antibody, human IgG1, kappa, L234A L235A, bi-miniGNC; D2 αHER3, D3 αCD3 (Fab); also called bi-miniGNC (SI-75X2)) chain 1: EVQLVESGGGLVQPGGSLRLSCAASGFTISTNAMSWVRQAPGKGLEWIGVITGRDITYYASWAKGRFTISRDNSKNTLYLQMNSLRAEDTAVYYCARDGGSSAITSNNIWGQGTLVTVSSASTKGPSVFPLAPSSKSTSGGTAALGCLVKDYFPEPVTVSWNSGALTSGVHTFPAVLQSSGLYSLSSVVTVPSSSLGTQTYICNVNHKPSNTKVDKRVEPKSCDKTHTCPPCPAPEAAGGPSVFLFPPKPKDTLMISRTPEVTCVVVDVSHEDPEVKFNWYVDGVEVHNAKTKPREEQYNSTYRVVSVLTVLHQDWLNGKEYKCAVSNKALPAPIEKTISKAKGQPREPQVYTLPPSRDELTKNQVSLSCAVKGFYPSDIAVEWESNGQPENNYKTTPPVLDSDGSFFLVSKLTVDKSRWQQGNVFSCSVMHEALHNHYTQKSLSLSPG chain 2: QSALTQPASVSGSPGQSITISCTGTSSDVGGYNFVSWYQQHPGKAPKLMIYDVSDRPSGVSDRFSGSKSGNTASLIISGLQADDEADYYCSSYGSSSTHVIFGGGTKVTVLGGGGSGGGGSGGGGSGGGGSQVQLQESGGGLVKPGGSLSLSCAASGFTFSSYWMSWVRQAPGKGLEWVANINRDGSASYYVDSVKGRFTISRDDAKNSLYLQMNSLRAEDTAVYYCARDRGVGYFDLWGRGTLVTVSSGGGGSGGGGSDVVMTQSPSTLSASVGDRVTINCQASESISSWLAWYQQKPGKAPKLLIYEASKLASGVPSRFSGSGSGTEFTLTISSLQPDDFATYYCQGYFYFISRTYVNSFGGGTKVEIKRTVAAPSVFIFPPSDEQLKSGTASVVCLLNNFYPREAKVQWKVDNALQSGNSQESVTEQDSKDSTYSLSSTLTLSKADYEKHKVYACEVTHQGLSSPVTKSFNRGECGGDKTHTCPPCPAPEAAGGPSVFLFPPKPKDTLMISRTPEVTCVVVDVSHEDPEVKFNWYVDGVEVHNAKTKPREEQYNSTYRVVSVLTVLHQDWLNGKEYKCAVSNKALPAPIEKTISKAKGQPREPQVYTLPPSRDELTKNQVSLWCLVKGFYPSDIAVEWESNGQPENNYKTTPPVLDSDGSFFLYSKLTVDKSRWQQGNVFSCSVMHEALHNRFTQKSLSLSPG	–	162	27.8
SI-75X5 (bispecific antibody, human IgG1, kappa, L234A L235A, bi-miniGNC, IgG1; D2 αHER3, D3 αCD3* (Fab); Chain B carries H435R/Y436F (Fc) and R19S (VH of the αHER3 scFv)) chain 1: QVQLQESGGRLVQPGEPLSLTCKTSGIDLSSNAIGWVRQAPGKGLEWIGVIFGSGNTYYASWAKGRFTISRSTSTVYLKMNSLRSEDTAIYYCARGGYSSDIWGQGTLVTVSSASTKGPSVFPLAPSSKSTSGGTAALGCLVKDYFPEPVTVSWNSGALTSGVHTFPAVLQSSGLYSLSSVVTVPSSSLGTQTYICNVNHKPSNTKVDKRVEPKSCDKTHTCPPCPAPEAAGGPSVFLFPPKPKDTLMISRTPEVTCVVVDVSHEDPEVKFNWYVDGVEVHNAKTKPREEQYNSTYRVVSVLTVLHQDWLNGKEYKCAVSNKALPAPIEKTISKAKGQPREPQVYTLPPSRDELTKNQVSLSCAVKGFYPSDIAVEWESNGQPENNYKTTPPVLDSDGSFFLVSKLTVDKSRWQQGNVFSCSVMHEALHNHYTQKSLSLSPG chain 2: QSALTQPASVSGSPGQSITISCTGTSSDVGGYNFVSWYQQHPGKAPKLMIYDVSDRPSGVSDRFSGSKSGNTASLIISGLQADDEADYYCSSYGSSSTHVIFGGGTKVTVLGGGGSGGGGSGGGGSGGGGSQVQLQESGGGLVKPGGSLSLSCAASGFTFSSYWMSWVRQAPGKGLEWVANINRDGSASYYVDSVKGRFTISRDDAKNSLYLQMNSLRAEDTAVYYCARDRGVGYFDLWGRGTLVTVSSGGGGSGGGGSDPQLTQSPSSLSATVGQRVTINCQSSQSVAKNNNLAWFQQKPGKPPKLLIYSASTLAAGVPSRFSGSGSGTQFTLTITRVQSEDFATYYCSARDSGNIQSFGGGTRVEIKRTVAAPSVFIFPPSDEQLKSGTASVVCLLNNFYPREAKVQWKVDNALQSGNSQESVTEQDSKDSTYSLSSTLTLSKADYEKHKVYACEVTHQGLSSPVTKSFNRGECGGDKTHTCPPCPAPEAAGGPSVFLFPPKPKDTLMISRTPEVTCVVVDVSHEDPEVKFNWYVDGVEVHNAKTKPREEQYNSTYRVVSVLTVLHQDWLNGKEYKCAVSNKALPAPIEKTISKAKGQPREPQVYTLPPSRDELTKNQVSLWCLVKGFYPSDIAVEWESNGQPENNYKTTPPVLDSDGSFFLYSKLTVDKSRWQQGNVFSCSVMHEALHNRFTQKSLSLSPG	–	139	44.4
